The source of these data is publication PMC6779467.

The assay concerns the target Hsf1-13xMyc (S. cerevisiae) (UniProt P10961). Nature of the assay: cross-linking; in vivo site-specific photo-crosslinking (UV-A, 1 hr on ice) from pBPa at position 423 of Ssa1-HA; cells grown at 30 C or heat shocked 3 min at 43 C; western with anti-HA and anti-Myc.

Turning to “Ssa1_(E423BPa)-HA (from UniProt P10591 1-642) (natural protein)”, the decrease of Hsf1-Ssa1 crosslinking after heat shock (3 min at 43 C) against cells at 30 C worked out at 77%.
